Measurements published in publication PMC4600334, “Myostatin blockade with a fully human monoclonal antibody induces muscle hypertrophy and reverses muscle atrophy in young and aged mice” (Skeletal Muscle, 2015).

T1: Human myostatin (human, UniProt O14793 267-375)
T1 sequence (looked up): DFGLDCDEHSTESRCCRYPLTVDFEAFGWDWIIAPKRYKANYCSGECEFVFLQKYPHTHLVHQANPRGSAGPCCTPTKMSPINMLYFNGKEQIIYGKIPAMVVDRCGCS

B1: Soluble human ActRIIB-hFc (Fc fusion, UniProt Q13705 19-133, looked up)
chain: SGRGEAETRECIYYNANWELERTNQSGLERCEGEQDKRLHCYASWRNSSGTIELVKKGCWLDDFNCYDRQECVATEENPQVYFCCCEGNFCNERFTHLPEAGGPEVTYEPPPTAP
notes: signal peptide in the construct; extracellular domain (1-133) of the human ActRIIB receptor (ACVR2B), in-frame fusion with human IgG1 Fc-domain; also called ActR2B-hFc; source: produced in Chinese hamster ovary (CHO) cells
B2: Human growth and differentiation factor 11 (ligand, UniProt O95390 299-407, looked up)
chain: NLGLDCDEHSSESRCCRYPLTVDFEAFGWDWIIAPKRYKANYCSGQCEYMFMQKYPHTHLVQQANPRGSAGPCCTPTKMSPINMLYFNDKQQIIYGKIPGMVVDRCGCS
notes: human growth and differentiation factor 11 (GDF11), purchased from R&D Systems; also called GDF11; GDF-11; source: bought: R&D Systems
B3: Human activin A (ligand, UniProt P08476 311-426, looked up)
chain: GLECDGKVNICCKKQFFVSFKDIGWNDWIIAPSGYHANYCEGECPSHIAGTSGSSLSFHSTVINHYRMRGHSPFANLKSCCVPTKLRPMSMLYYDDGQNIIKKDIQNMIVEECGCS
notes: human activin A (inhibin beta A chain), purchased from R&D Systems; source: bought: R&D Systems

What was measured:
Human myostatin = target: T1, Human myostatin; test: cell-based or functional assay
[1] = target: B2; test: cell-based or functional assay
Human activin A [2] = target: B3; test: cell-based or functional assay
Human activin A [3] = target: B3; test: SPR; Biacore T200, CM5 chip, 25 °C; ActRIIB-hFc captured through its Fc (32-39 RU) by immobilised goat anti-human Fcγ antibody; ligands injected at 40 to 0.78 nM; HBS-T (10 mM HEPES, 150 mM NaCl, 3 mM EDTA, 0.05 % P20, 10 mg/ml carboxymethyldextran, 0.5 mg/ml BSA, pH 7.4); global fit to a 1:1 model; details: both partners purified
[4] = target: B1; test: as above; details: both partners purified

IC50 of inhibition of Smad2/3 luciferase activity in A204/Smad2/3/Luc cells stimulated with a constant 1 nM myostatin (Human myostatin) [pM]	IC50 of inhibition of Smad2/3 luciferase activity in A204/Smad2/3/Luc cells stimulated with a constant 0.4 nM GDF11 [1] [pM]	IC50 of inhibition of Smad2/3 luciferase activity in A204/Smad2/3/Luc cells stimulated with a constant 0.4 nM activin A (Human activin A [2]) [pM]	Kd (Human activin A [3]) [pM]	koff (Human activin A [3]) [s⁻¹]	kon (Human activin A [3]) [M⁻¹ s⁻¹]	Kd [4] [pM]	T1/2 [4] [h]	koff [4] [s⁻¹]	kon [4] [M⁻¹ s⁻¹]	Binder
570	460	1200	86.6	7.94e-05	917000	–	–	–	–	B1
–	–	–	–	–	–	14	1.87	0.000103	7.38e+06	B2
–	–	–	–	–	–	–	2.43	–	–	B3
